Patent US20200270319A1 (KOLON TISSUEGENE, published 2020)

Biological target: Recombinant human PTEN protein (human, UniProt P60483 1-403 (dog entry))
Assay: cell-based or functional assay

Sequence of Recombinant human PTEN protein (P60483 whole entry): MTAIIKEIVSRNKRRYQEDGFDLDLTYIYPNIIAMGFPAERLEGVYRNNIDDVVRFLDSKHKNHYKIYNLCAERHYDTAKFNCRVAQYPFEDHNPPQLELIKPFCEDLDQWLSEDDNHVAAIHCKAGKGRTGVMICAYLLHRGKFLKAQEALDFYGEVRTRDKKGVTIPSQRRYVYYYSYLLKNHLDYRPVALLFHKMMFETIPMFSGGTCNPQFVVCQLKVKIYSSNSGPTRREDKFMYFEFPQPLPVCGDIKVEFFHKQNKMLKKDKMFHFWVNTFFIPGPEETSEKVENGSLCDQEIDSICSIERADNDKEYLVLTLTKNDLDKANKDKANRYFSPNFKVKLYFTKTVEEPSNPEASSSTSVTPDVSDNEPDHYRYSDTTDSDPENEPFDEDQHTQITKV

B1: TGN-3 peptide (peptide)
peptide: RRRRRRRRHYRYVDTTDVDPENEPFDEDQHTQITKV
modifications: C-terminal amide
- IC50, in vitro PTEN activity assay (lipid phosphatase, C8-PIP3 liposome, Malachite Green): 87.1 µM
- PTEN activity remaining with 10 µM peptide, compared with positive control: 86%
